Reference: US10829528B2, “Therapeutic agents for neurological and psychiatric disorders” (VIB VZW, priority 2016, dated 2020)

System: primary hippocampal neurons
Experiment: mEPSCs & mIPSCs in cultured primary hippocampal neurons (wild type)
Type: cell-based, mouse
Experimental: mEPSCs & mIPSCs are measured in cultured primary hippocampal neurons at baseline and following acute application of agonists. Excitatory terminals selectively express the sushi domain-containing GABABR1a isoform (ref18), where it functions to inhibit neurotransmitter release (ref 24). Acute exposure of primary hippocampal neurons from wild type mice to 30μM baclofen, a GABABR agonist, or 250 nM sAPPα (Fc cleaved) reduces the frequency of miniature excitatory postsynaptic currents (mEPSCs) by 68% (FIG. 8 a,b) and 39% (FIG. 8 c,d), respectively, with no effect on mEPSC amplitude (FIG. 8e). […] Acute application of 30 μM baclofen or 250 nM purified sAPPα reduces the frequency of miniature inhibitory postsynaptic currents (mIPSCs) by 63% (FIG. 8a, 9a) and 44% (FIG. 8c, 9b), respectively, which is blocked by pretreatment with the GABABR antagonist CGP55845 (CGP, 5 μM) (FIG. 8f, 9d). Application of sAPPα causes a minor (14%) reduction on mIPSC amplitude (FIG. 8e, 9c). […] Baclofen is known to reduce the frequencies of mEPSCs and mIPSCs, which we have also confirmed. […] To confirm that the agonist is acting through GABABR1a, the agonist is tested in cultures with shRNA mediated knockdown of GABABR1a or antisense oligonucleotides mediated exon skipping of the exon encoding the Sushi domain 1 of GABABR1a. Antagonists are tested by treatment in combination with the agonist, Baclofen. […] As an antagonist we test an antibody against the sushi domain sequence (SEQ ID No: 5): […] SWTDMDTPSRCV. An antibody specifically binding to this domain which acts as an antagonist increases the frequencies of mEPSCs and mIPSCs. sAPPα also reduces mEPSC and mIPSC frequency in App/Aplp1 dKO cultures (FIG. 8j, 9f), excluding the possibility that sAPPα interferes with a complex of full-length APP and GABABR1 to exert its effect on GABABR signaling.
Hippocampal neurons were cultured from E18 C57/B16 wild type mice or APP/APLP1 dKO mice (provided by Ulrike Muller46) and plated on poly-D-lysine (Millipore), and laminin (Invitrogen) coated coverslips (Nalge Nunc International). Neurons were maintained in Neurobasal medium (Invitrogen) supplemented with B27, glucose, glutamax, penicillin/streptomycin (Invitrogen) and 25 μM β-mercaptoethanol.
Single neurons from wild type or APP/APLP1 null mutant embryos (E18) were recorded within the large neuronal network at DIV 12-15. The intracellular whole-cell pipette medium contained (in mM): 136 KCl, 18 HEPES, 4 Na-ATP, 4.6 MgCl2, 15 Creatine Phosphate, 1 EGTA and 50 U/ml Phospocreatine Kinase (300 mOsm, pH 7.30). Regular external solution contained 2 mM/2 mM Ca2+/Mg2+(in mM: 140 NaCl, 2.4 KCl, 2 CaCl2), 2 MgCl2, 10 HEPES, 14 Glucose (300 mOsm, pH 7.30)) and TTX (1 μM). Pharmacological reagents (30 μM baclofen, 5 μM CGP), sAPLP1, full length sAPP and sAPP derived peptides (250 nM each) were bath applied (dissolved in external medium described above) using a separate gravity driven application inlet. Recordings were done in whole cell voltage clamp configuration at −70 mV with a double EPC-10 amplifier (HEKA Elektronik) under control of Patchmaster v2×32 software (HEKA Elektronik). Currents were low-pass filtered at 3 kHz and stored at 20 kHz. Patch pipettes were pulled from borosilicate glass using a multi-step puller (P-1000; Sutter Instruments). Pipette resistance ranged from 3 to 5 MΩ and was compensated to 75-80%. Only cells with series resistances <15 MΩ were included in analysis. All recordings were done at room temperature. Spontaneous events were detected using Mini Analysis program (Synaptosoft). mEPSCs and mIPSCs were separated on the basis of their distinct decay kinetics, using a threshold of 5 ms47. Baseline was determined from an average of 60 sec of recordings prior to protein or drug treatment. Effect of treatment was determined from an average of 30 sec recordings after 140 sec of protein or drug treatment.

B1: sAPPα: soluble amyloid precursor protein α ectodomain; mouse APP695 18-612aa, Fc tag cleaved (protein)
chain: LEVPTDGNAGLLAEPQIAMFCGKLNMHMNVQNGKWESDPSGTKTCIGTKEGILQYCQEVYPELQITNVVEANQPVTIQNWCKRGRKQCKTHTHIVIPYRCLVGEFVSDALLVPDKCKFLHQERMDVCETHLHWHTVAKETCSEKSTNLHDYGMLLPCGIDKFRGVEFVCCPLAEESDSVDSADAEEDDSDVWWGGADTDYADGGEDKVVEVAEEEEVADVEEEEADDDEDVEDGDEVEEEAEEPYEEATERTTSTATTTTTTTESVEEVVRVPTTAASTPDAVDKYLETPGDENEHAHFQKAKERLEAKHRERMSQVMREWEEAERQAKNLPKADKKAVIQHFQEKVESLEQEAANERQQLVETHMARVEAMLNDRRRLALENYITALQAVPPRPHHVFNMLKKYVRAEQKDRQHTLKHFEHVRMVDPKKAAQIRSQVMTHLRVIYERMNQSLSLLYNVPAVAEEIQDEVDELLQKEQNYSDDVLANMISEPRISYGNDALMPSLTETKTTVELLPVNGEFSLDDLQPWHPFGVDSVPANTENEVEPVDARPAADRGLTTRPGSGLTNIKTEEISEVKMDAEFGHDSGFEVRHQK
reduction of mIPSC amplitude (250 nM sAPPα): 14%
effect on mEPSC amplitude (250 nM, acute exposure): no effect
reduction of mIPSC frequency (acute application, 30 μM baclofen, 250 nM proteins): 44%
reduction of mEPSC frequency (acute exposure, 30 μM baclofen or 250 nM sAPPα (Fc cleaved), wild type mice): 39%
